We go through 54 sequences from the supplement of paper PMC11780869.

The data set relates to Bacillus subtilis. Nature of the data set: cleaved RNA product abundance (RNA/gDNA barcode ratio) relative to median wild-type variant (ratio to wild type); higher = more accumulation of the downstream cleavage product. The method in brief:
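The B. subtilis chromosome carried reporter mRNAs, truncated aprE or tetM, containing barcoded RNase Y cleavage-site windows mutagenized using oligos with a 9% error rate. After growth in LB at 37°C from OD600 0.0003 to 0.3, cleaved RNA was gel-selected, reverse transcribed and barcode-sequenced next to genomic DNA barcodes, with UMI collapsing. Each construct's RNA:gDNA barcode ratio was scaled to the median construct with the unmutated site. That scaled ratio is reported as cleaved product abundance.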

[1] abbreviates: experiment (reporter, strain, medium): exp 2b: truncated aprE reporter, strain BJT200, cleavage site: cggR-gapA (positions -7 to +36 mutated).
Setting [2] is: experiment (reporter, strain, medium): exp 4a: truncated aprE reporter, strain BJT201 with 2% xylose (RNase J1 expressed), cleavage site: cggR-gapA (positions -7 to +36 mutated).
Setting [3] is: experiment (reporter, strain, medium): exp 8a: truncated aprE reporter, strain BJT201 with 2% xylose (RNase J1 expressed), cleavage site: glnRA (positions -5 to +31 mutated).

In the case of “ACAGACGAAGGAGCCGCAAAAAAGTTATTAAGGGATGTATAATCCCTCAATATAAATATCTCTCACTTATTTAAA”, the “cleaved RNA product abundance” value is, setting by setting: under setting [1], 1.06; under setting [2], 1.09.
“ACAGACGAAGGAGCCGCAAAGAAGTTAATAAAGGATGAATAATCCCTCAATATAAATATCTCTCACTTATTTAAA”: the “cleaved RNA product abundance” value was 0.143 under setting [1] and 0.215 under setting [2].
Consider “CGACATGTCCCGCTTCTTTCATTAATCCGGTAGCAACTGTTTTGCAATATACATTTACCTTTTAAGAGGAGGAAT”, for which, under setting [3], the “cleaved RNA product abundance” value stood at 0.533.
“ACAGACGAAGGAGCCGCAAAGAAGTTATTAAGGGATGAATAATCACTCAATATAAAAATCTCTCACTTATTTAAA”: the “cleaved RNA product abundance” value under setting [2] was 0.136.
Turning to “ACAGACGAAGGAGCCGCAAAGAAGTTATTAAAGGATGATTAATCCCTCAATATAAATATCTCTCACTTATTTAAA”, the “cleaved RNA product abundance” value reads like this: under setting [1], 0.122; under setting [2], 0.184.
In the case of “ACAGACGAAGGAGCCGCAAATAAGTTATAAAGGGATGTATAATCCCTCAATATAAATATCTCTCACTTATTTAAA”, the “cleaved RNA product abundance” value under setting [1] came out at 0.384.
In the case of “CGACATGTCCCGCTTCTTTCATTAAGCCGTTATCAACTGTTTTGCTATATTCATTTACCTTTTAAGAGGAGGAAT”, the “cleaved RNA product abundance” value under setting [3] is 0.0648.
In the case of “ACAGACGAAGGAGCCGCAAACAAGTTATTAAGGGATGAATAATCCCTCAATAAAAATATCTCTCACTTATTTAAA”, under setting [2], the “cleaved RNA product abundance” value is 0.1.
Consider “ACAGACGAAGGAGCCGCAAAAAAGTTATTAAGGGATGAATAATCCCTCAATATAGATATCTCTCACTTATTTAAA”, for which the “cleaved RNA product abundance” value under setting [1] came out at 0.991 and the “cleaved RNA product abundance” value under setting [2] was 0.644.
Regarding “CGACATGTCCCGCTTCTTTCATTAATCCCTTATCAACTGTTTTGCTATATACATTTACCTTTTAAGAGGAGGAAT”, the “cleaved RNA product abundance” value under setting [3] came out at 0.249.
Turning to “ACAGACGAAGGAGCCGCAAAGAAAGTTATTAAGGGATGAATAATCCCTCAATATAAATATCTCTCACTTATTTAA”, the “cleaved RNA product abundance” value under setting [2] worked out at 0.775.
The same measure, in the same setting: for “ACAGACGAAGGAGCCGCTAAGATGTTATTAAGGGATGAATAATCCCTCAATATAAATATCTCTCACTTATTTAAA” the value was 1.18; for “ACAGACGAAGGAGCCGCAAAGAAGTGATTAAGGGATGAATAATCCCTCACTATAAATATCTCTCACTTATTTAAA”, 0.0759.
Take “CGACATGTCCCGCTTCTTTCATTAATCCGTTAGCAACTGTTTTGATATATACATCTACCTTTTAAGAGGAGGAAT”: under setting [3], the “cleaved RNA product abundance” value was found to be 0.44.
Still for that read-out and setting: for “CGACATGTCCCGCTTCTTTCATTAATCCGTTACCAACTGTTTTGCTATATACATTTACCTTTTAAGAGGAGGAAT” the value was 0.255.
As to “ACAGACGAAGGAGCCGCAAAGAAATTATTAAGGGATGAATAATCCCGCAATATAAATATCTCTCACTTATTTAAA”, under setting [2], the “cleaved RNA product abundance” value is 0.214.
“ACAGACGAAGGAGCCGCAAAGAAGTTATTAAGGAATCAATAATCCCTCAATATAAATATCTCTCACTTATTTAAA”: the “cleaved RNA product abundance” value was 0.0834 under setting [1] and 0.109 under setting [2].
In the case of “CGACATGTCCCGCTTCTTTCATTAATCCGTTAGCAAGTGTTTTGCTATATACATCTACCTTTTAAGAGGAGGAAT”, the “cleaved RNA product abundance” value under setting [3] turned out to be 0.494.
For the sequence “ACAGACGAAGGAGCCGCAAAAAATTTATTAAGCGATGAATAATCCCTCAATATAAATATCTCTCACTTATTTAAA”, the “cleaved RNA product abundance” value under setting [2] was determined as 0.113.
Still for that read-out and setting: for “ACAGACGAAGGAGCCGCAAAGAAGTTTATTAAGGGATGAATAATCCCTCAATATAAATATCTCTCACTTATTTAA” the value was 0.754.
Take “CGACATGTCCCGCTTCTTTCATTAATCCGTTAGCAACTGTTTTGCCATATACATTTACCTTTTAAGAGGAGGAAT”: under setting [3], the “cleaved RNA product abundance” value was found to be 0.205.
With “ACAGACGAAGGAGCCGCAAAGAAGATATTAAGGGATGAATAATCCCTCAATATAAATGTCTCTCACTTATTTAAA”, the “cleaved RNA product abundance” value came out at 0.338 under setting [1] and 0.393 under setting [2].
As for “CGACATGTCCCGCTTCTTTCATTATTACGTTAGCAACCGTTTTGCTATATACATTTACCTTTTAAGAGGAGGAAT”, the “cleaved RNA product abundance” value under setting [3] was found to be 1.06.
As for “ACAGACGAAGGAGCCGCAAAAAAGTTATTTAGGGATGAATAATCCCTCAATATAAATATCTCTCACTTATTTAAA”, the “cleaved RNA product abundance” value under setting [2] worked out at 0.552.
With “CGACATGTCCCGCTTCTTTCATTAATCCGTTAGAACCTGTTTTGCTATATACATTTACCTTTTAAGAGGAGGAAT”, the “cleaved RNA product abundance” value under setting [3] was 0.229.
For the sequence “ACAGACGAAGGAGCCGCAACGAAATTATTAAGGGATGAATAATCCCTCAATATAAATATCTCTCACTTATTTAAA”, the “cleaved RNA product abundance” value under setting [1] was 1.1 and the “cleaved RNA product abundance” value under setting [2] is 1.03.
Turning to “ACAGACGAAGGAGCCGCAAAGAAGTTATTAAGGGATGAATAATCCTTAAATATAAATATCTCTCACTTATTTAAA”, under setting [2], the “cleaved RNA product abundance” value worked out at 0.581.
For “ACAGACGAAGGAGCCGCAAAGAAGTTATTAAGGGATGAATAATCCCTAAGTATAAATATCTCTCACTTATTTAAA”, the “cleaved RNA product abundance” value runs as follows: under setting [1], 0.255; under setting [2], 0.502.
With “ACAGACGAAGGAGCCGCAGAGAAGTTTTTAAGGGATGAATAATCCCTCAATATAAATATCTCTCACTTATTTAAA”, the “cleaved RNA product abundance” value under setting [2] came to 0.37.
On to “ACAGACGAAGGAGCCGCAAGGAAGTTATTAAGGTATGAATAATCCCTCAATATAAATATCTCTCACTTATTTAAA”, for which the “cleaved RNA product abundance” value under setting [2] worked out at 0.101.
For the sequence “CGACATGTCCCGCTTCTTTCATTACTCCGTTAGCAACTGTTTTGCTATATCCATTTACCTTTTAAGAGGAGGAAT”, the “cleaved RNA product abundance” value under setting [3] was found to be 0.21.
Regarding “ACAGACGAAGGAGCCGCAAAGAAGTTATTAAGGGATGATTAATCCCACAATATAAATATCTCTCACTTATTTAAA”, the “cleaved RNA product abundance” value under setting [2] was 0.276.
Consider “CGACATGTCCCGCTTCTTTCATTAATCAGTTAGCAACTGTTTTGCTATATACATATACCTTTTAAGAGGAGGAAT”, for which, under setting [3], the “cleaved RNA product abundance” value turned out to be 1.04.
For “ACAGACGAAGGAGCCGCTAAGAAGTTATTAAGGAATGAATAATCCCTCAATATAAATATCTCTCACTTATTTAAA”, the “cleaved RNA product abundance” value under setting [2] is 0.0845.
Still for that read-out and setting: for “ACAGACGAAGGAGCCGCACAGAAGTTCTTAAGGGATGAATAATCCCTCAATATAAATATCTCTCACTTATTTAAA” the value was 0.275.
“ACAGACGAAGGAGCCGCAAAGAAGTTATTAAGGGATGAATAATCCATCAATGTAAATATCTCTCACTTATTTAAA”: the “cleaved RNA product abundance” value by setting is: under setting [1], 0.0896; under setting [2], 0.0513.
Regarding “ACAGACGAAGGAGCCGCAAAAAAGTTATTAAGGGGTGAATAATCCCTCAATATAAATATCTCTCACTTATTTAAA”, the “cleaved RNA product abundance” value by setting is: under setting [1], 0.759; under setting [2], 0.602.
With “ACAGACGAAGGAGCCGCAAAGAAGTTATTAAGGTATGAATAATCCCTAAATATAAATATCTCTCACTTATTTAAA”, the “cleaved RNA product abundance” value is 0.109 under setting [1] and 0.168 under setting [2].
For “ACAGACGAAGGAGCCGCAAAGAAGTTATTAAGCGATGAATAAACCCTCAATATAAATATCTCTCACTTATTTAAA”, the “cleaved RNA product abundance” value under setting [2] was determined as 0.0954.
Regarding “CGACATGTCCCGCTTCTTTCATTAATCCGTTAGCAACTGTTTTAATATATACATTTACCTTTTAAGAGGAGGAAT”, the “cleaved RNA product abundance” value under setting [3] was determined as 0.589.
For the sequence “ACAGACGAAGGAGCCGCAAAGAAGTTATTAAGGAACGAATAATCCCTCAATATAAATATCTCTCACTTATTTAAA”, the “cleaved RNA product abundance” value is, setting by setting: under setting [1], 0.0842; under setting [2], 0.073.
For “ACAGACGAAGGAGCCGCAAAGATGTTATTAAGGCATGAATAATCCCTCAATATAAATATCTCTCACTTATTTAAA” the same measures were 0.108 and 0.104.
With “ACAGACGAAGGAGCCGCAAAGAAGTTATTAAGGGATGAATAATCCCTTCAATATAAATATCTCTCACTTATTTAA”, the “cleaved RNA product abundance” value under setting [2] was 0.904.
On to “ACAGACGAAGGAGCCGCAAAGAAGTTATTAACGGATGAATAATCCCTTAATATAAATATCTCTCACTTATTTAAA”, for which the “cleaved RNA product abundance” value is, setting by setting: under setting [1], 0.98; under setting [2], 0.671.
With “ACAGACGAAGGAGCCGCAAAGAAGTTATTAAGGGATGAATAATTCCGCAATATAAATATCTCTCACTTATTTAAA”, the “cleaved RNA product abundance” value under setting [2] amounted to 0.188.
On the same count and under the same terms, for “ACAGACGAAGGAGCCGCACAGAAGTCATTAAGGGATGAATAATCCCTCAATATAAATATCTCTCACTTATTTAAA” the value was 0.43.
For the sequence “ACAGACGAAGGAGCCGCAAAGAAGTTATTAATGGATGAATAATTCCTCAATATAAATATCTCTCACTTATTTAAA”, the “cleaved RNA product abundance” value turned out to be 0.0864 under setting [1] and 0.12 under setting [2].
On the same counts, the results for “ACAGACGAAGGAGCCGCAAAGAAGTTATTAAGGGATGAATAAACCCTCAATATATATATCTCTCACTTATTTAAA” are 0.488 and 0.477.
As for “ACAGACGAAGGAGCCGCAAACAAGTTATTAAGGGATGAATTATCCCTCAATATAAATATCTCTCACTTATTTAAA”, under setting [1], the “cleaved RNA product abundance” value came out at 0.669.
Take “ACAGACGAAGGAGCCGCAAAGAAGTTATTAAGGGATGTATATTCCCTCAATATAAATATCTCTCACTTATTTAAA”: the “cleaved RNA product abundance” value under setting [2] was 0.88.
Consider “ACAGACGAAGGAGCCGCAAAGAAGTTATTAAGGGATAAACAATCCCTCAATATAAATATCTCTCACTTATTTAAA”, for which the “cleaved RNA product abundance” value was determined as 0.787 under setting [1] and 0.798 under setting [2].
On to “ACAGACGAAGGAGCCGCAAAGATGTTATTAAGGGATGAATAATCCCTCAACATAAATATCTCTCACTTATTTAAA”, for which the “cleaved RNA product abundance” value under setting [2] worked out at 0.223.
Regarding “ACAGACGAAGGAGCCGCAAAGAAGTTGTTAAGCGATGAATAATCCCTCAATATAAATATCTCTCACTTATTTAAA”, the “cleaved RNA product abundance” value under setting [2] came out at 0.0544.
Still for that read-out and setting: for “ACAGACGAAGGAGCCGCAAAGAAGTTATTAAGGGATGAATAATACCTCAAAATAAATATCTCTCACTTATTTAAA” the value was 0.155.
